Square brackets hold non-standard residues; d marks the D form. Ends that are not written are not given here. pT = C[C@@H](OP(=O)(O)O)[C@H](N)C(=O)O
B1: INCENP^1-80 (recombinant) (domain or fragment, human, UniProt Q9NQS7 1-80, looked up)
chain: MGTTAPGPIHLLELCDQKLMEFLCNMDNKDLVWLEEIQEEAERMFTREFSKEPELMPKTPSQKNRRKKRRISYVQDENRD
notes: INCENP, human, residues 1-80; Subunit in the rows of two; also called I^80; source: E. coli BL21-CodonPlus (DE3)-RIL, purified within the complex; not shown: His6, N-terminal, cleaved; GST, N-terminal, cleaved
B2: MKLP2^557-668 (domain or fragment, human, UniProt O95235 557-668, looked up)
chain: MYGKEELLQVVEAMKTLLLKERQEKLQLEMHLRDEICNEMVEQMQQREQWCSEHLDTQKELLEEMYEEKLNILKESLTSFYQEEIQERDEKIEELEALLQEARQQSVAHQQS
notes: source: E. coli BL21-CodonPlus (DE3)-RIL, purified (Glutathione Sepharose, SEC); not shown: His6, N-terminal, cleaved; GST, N-terminal, cleaved
B3: H3 (1–12) peptide (peptide)
peptide: ARTKQTARKSTG
notes: histone H3 residues 1-12; also called H3T3 nonphosphopeptide; nonphosphorylated H3 peptide; source: synthetic peptide (Peptide Protein Research Ltd)
B4: H3pT3 (1–12) phosphopeptide (peptide)
peptide: AR[pT]KQTARKSTG
notes: also called pH3T3; H3pT3 phosphopeptide; source: synthetic peptide (Peptide Protein Research Ltd)
B5: GFP-MKLP2 Δ636-652 (natural protein, human, UniProt O95235 1-890, looked up)
chain: MSQGILSPPAGLLSDDDVVVSPMFESTAADLGSVVRKNLLSDCSVVSTSLEDKQQVPSEDSMEKVKVYLRVRPLLPSELERQEDQGCVRIENVETLVLQAPKDSFALKSNERGIGQATHRFTFSQIFGPEVGQASFFNLTVKEMVKDVLKGQNWLIYTYGVTNSGKTHTIQGTIKDGGILPRSLALIFNSLQGQLHPTPDLKPLLSNEVIWLDSKQIRQEEMKKLSLLNGGLQEEELSTSLKRSVYIESRIGTSTSFDSGIAGLSSISQCTSSSQLDETSHRWAQPDTAPLPVPANIRFSIWISFFEIYNELLYDLLEPPSQQRKRQTLRLCEDQNGNPYVKDLNWIHVQDAEEAWKLLKVGRKNQSFASTHLNQNSSRSHSIFSIRILHLQGEGDIVPKISELSLCDLAGSERCKDQKSGERLKEAGNINTSLHTLGRCIAALRQNQQNRSKQNLVPFRDSKLTRVFQGFFTGRGRSCMIVNVNPCASTYDETLHVAKFSAIASQLVHAPPMQLGFPSLHSFIKEHSLQVSPSLEKGAKADTGLDDDIENEADISMYGKEELLQVVEAMKTLLLKERQEKLQLEMHLRDEICNEMVEQMQQREQWCSEHLDTQKELLEEMYEEKLNILKESLTSALLQEARQQSVAHQQSGSELALRRSQRLAASASTQQLQEVKAKLQQCKAELNSTTEELHKYQKMLEPPPSAKPFTIDVDKKLEEGQKNIRLLRTELQKLGESLQSAERACCHSTGAGKLRQALTTCDDILIKQDQTLAELQNNMVLVKLDLRKKAACIAEQYHTVLKLQGQVSAKKRLGTNQENQQPNQQPPGKKPFLRNLLPRTPTCQSSTDCSPYARILRSRRSPLLKSGPFGKKY
notes: source: HeLa, transfected, in lysate; not shown: EGFP, N-terminal, kept
B6: borealin^10-109 (domain or fragment, human, UniProt Q53HL2 10-109, looked up)
chain: VAKTNSLRRRKLASFLKDFDREVEIRIKQIESDRQNLLKEVDNLYNIEILRLPKALREMNWLDYFALGGNKQALEEAATADLDITEINKLTAEAIQTPLK
notes: borealin, human, residues 10-109; Subunit in the rows of two; source: E. coli BL21-CodonPlus (DE3)-RIL, co-expressed with survivin (pETDuet-1), purified within the complex

Experiments:
[1] = molecular target: T1, survivin (full-length, recombinant, as subunit of the CPI complexes) (human, UniProt O15392 1-142); assay: SEC-MALS; samples at 1 mg/ml on Superose 6 10/300 GL, room temperature; 100 mM NaCl, 20 mM Tris-HCl pH 8.0, 1 mM DTT, 10% glycerol; settings: both partners purified
T1 construct: survivin, human, full length; Never handled alone; stands for the subunit in the rows of two; source: E. coli BL21-CodonPlus (DE3)-RIL, co-expressed with borealin (pETDuet-1), purified within the complex

borealin^10-109 = molecular target: B6; assay: as above; settings: both partners purified
[2] = molecular target: T2, CPI80^(Survivin E65A-H80A) (human, UniProt O15392 1-142; Q9NQS7 1-80; Q53HL2 10-109, E65A | H80A); assay: SEC; CPC variants and MKLP2^557-668 mixed 1:1, 30 min on ice in 100 mM NaCl, 20 mM Tris-HCl pH 8.0, 1 mM DTT, 10% glycerol; analytical Superdex 200 increase 10/300 at 4°C; fractions on stained gels; settings: both partners purified
T2 construct: survivin, human, E65A H80A; INCENP, human, residues 1-80; borealin, human, residues 10-109 as in CPI80; not restated for this mutant; also called CPI80^E65A-H80A; survivin^E65A-H80A CPI80; source: E. coli BL21-CodonPlus (DE3)-RIL, purified (Glutathione Sepharose, SEC); not shown: His6, N-terminal, cleaved; GST, N-terminal, cleaved; copies: + +

[3] = molecular target: the molecule itself; assay: SEC-MALS; samples at 1 mg/ml on Superose 6 10/300 GL, room temperature; 100 mM NaCl, 20 mM Tris-HCl pH 8.0, 1 mM DTT, 10% glycerol
[4] = molecular target: CPI58 as used in ITC, SEC and ATPase assays (survivin, borealin, INCENP 1–58) (human, UniProt O15392 1-142; Q9NQS7 1-58; Q53HL2 1-280, Structural Zn2+ on survivin C57/C60/H77/C84. Survivin is taken from the authors' construct entity (entity number = survivin number + 2; leading GP tag scar left out). Borealin 10-109 is inferred from); assay: ITC; 400 µM peptide injected into 50 µM protein; 100 mM NaCl, 20 mM Tris-HCl pH 7.2, 1 mM DTT; 25°C; 1:1 binding model; settings: both partners purified
[5] = molecular target: T3, MKLP2^557-668:CPI80 (survivin, INCENP^1-80, borealin^10-109) (human, UniProt O95235 557-668; O15392 1-142; Q9NQS7 1-80; Q53HL2 10-109); assay: as above; settings: both partners purified
T3 construct: survivin, human; INCENP, human, residues 1-80; borealin, human, residues 10-109; also called MKLP2:CPI80; not shown: His6, N-terminal, cleaved; GST, N-terminal, cleaved; copies: 2 + 2 + 2 + 2

[6] = molecular target: T4, CPI80 (survivin, INCENP^1-80, borealin^10-109) (human, UniProt O15392 1-142; Q9NQS7 1-80; Q53HL2 10-109); assay: as above; settings: both partners purified
T4 construct: survivin, human; INCENP, human, residues 1-80; borealin, human, residues 10-109; 1:1:1 trimer by SEC-MALS; also called WT CPI80; source: E. coli BL21-CodonPlus (DE3)-RIL, purified (Glutathione Sepharose, SEC); not shown: His6, N-terminal, cleaved; GST, N-terminal, cleaved; copies: 1 + 1 + 1

[7] = molecular target: T5, CPI80^RRKKRR (CPI80 with the INCENP RRKKRR-motif replaced with alanine residues) (human, UniProt O15392 1-142; Q9NQS7 1-80; Q53HL2 10-109, RRKKRR to hexa-alanine); assay: as above; settings: both partners purified
T5 construct: survivin, human; INCENP, human, residues 1-80 with RRKKRR to hexa-alanine; borealin, human, residues 10-109 as in CPI80; not restated for this mutant; also called CPI80^RRKKRR mutant; source: E. coli BL21-CodonPlus (DE3)-RIL, purified (Glutathione Sepharose, SEC); not shown: His6, N-terminal, cleaved; GST, N-terminal, cleaved; copies: + +

[8] = molecular target: CPI58 as used in ITC, SEC and ATPase assays (survivin, borealin, INCENP 1–58) (human, UniProt O15392 1-142; Q9NQS7 1-58; Q53HL2 1-280); assay: as above; settings: both partners purified
[9] = molecular target: the molecule itself; assay: SEC; 1 mg lysate of nocodazole-arrested HeLa cells on Superose 6 10/300 at 4°C; fractions Western blotted for MKLP2 and GFP; size from calibration standards

T4 sequence (O15392 whole entry, chain 1 of 3, one chain of several, the tested form may be a part): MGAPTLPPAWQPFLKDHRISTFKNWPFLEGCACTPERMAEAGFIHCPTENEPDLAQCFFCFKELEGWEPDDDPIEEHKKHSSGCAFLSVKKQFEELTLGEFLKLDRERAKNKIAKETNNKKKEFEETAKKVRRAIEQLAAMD
T1 sequence (O15392 whole entry, one chain of several): as the sequence (O15392 whole entry, chain 1 of 3, one chain of several, the tested form may be a part) above
T5 sequence (O15392 whole entry, change not shown, chain 1 of 3, one chain of several, the tested form may be a part): as the sequence (O15392 whole entry, chain 1 of 3, one chain of several, the tested form may be a part) above
T5 sequence (Q9NQS7 other isoform, or with tags, fused parts or gaps RRKKRR to hexa-alanine | RRKKRR to hexa-alanine, chain 2 of 3, one chain of several): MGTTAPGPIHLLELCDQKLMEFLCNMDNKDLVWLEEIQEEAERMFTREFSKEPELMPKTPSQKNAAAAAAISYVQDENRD
T2 sequence (O15392 whole entry E65A/H80A, the tested form may be a part, one chain of several): as the sequence (O15392 whole entry, chain 1 of 3, one chain of several, the tested form may be a part) above, with E65A, H80A counted along it
Sequence of CPI58 as used in ITC, SEC and ATPase assays (survivin, borealin, INCENP 1–58) (human, UniProt O15392 1-142; Q9NQS7 1-58; Q53HL2 1-280, Structural Zn2+ on survivin C57/C60/H77/C84. Survivin is taken from the authors' construct entity (entity number = survivin number + 2; leading GP tag scar left out). Borealin 10-109 is inferred from) (A2SUH6 whole entry, chain 1 of 3, one chain of several): as the sequence (O15392 whole entry, chain 1 of 3, one chain of several, the tested form may be a part) above

Row | Binder | stoichiometry N [1] | Kd [5] [µM] | Kd [6] [µM] | Kd [7] [µM] | further results
1 | B1 | 1 |  |  |  | stoichiometry N (borealin^10-109): 1
2 | B2 |  |  |  |  | binding result [2]: binds; stoichiometry N [3]: 2
3 | B3 |  | 2.8 ± 0.3 | 4.6 | 3.3 ± 0.5 | Kd [4]: 5.6 µM
4 | B4 |  | < 1 | 1.1 | 0.6 ± 0.3 | Kd [8]: 0.8 µM
5 | B5 |  |  |  |  | stoichiometry N [9]: 2
6 | B6 | 1 |  |  |  | 

Reference: PMC7337490, “Molecular basis of MKLP2-dependent Aurora B transport from chromatin to the anaphase central spindle” (The Journal of Cell Biology, 2020)
